B1: oa 225-H (antibody, V domains shown)
VH: EVQLVQSGAEVKKPGASVKVSCKASGFSLTNYGVHWMRQAPGQGLEWIGVIWSGGNTDYNTPFTSRVTITSDKSTSTAYMELSSLRSEDTAVYYCARALDYYDYEFAYWGQGTLVTVSS
VL: DIQMTQSPSSLSASVGDRVTITCRASQSIGTNIHWYQQKPGKAPKLLIKYASESISGVPSRFSGSGYGTDFTLTISSLQPEDVATYYCQQNNEWPNTFGQGTKVEIK
notes: one-armed (monovalent) anti-EGFR SEED molecule
B2: B10v5x225-L (bispecific antibody, V domains shown)
VL (c-MET arm): EPVLTQPPSVSVAPGETATIPCGGDSLGSKIVHWYQQRPGQAPLLVVYDDAARPSGIPERFSGSKSGTTATLTISSVEAGDEADYFCQVYDYHSDVEVFGGGTKLTVLGQPKAA
VH (c-MET arm): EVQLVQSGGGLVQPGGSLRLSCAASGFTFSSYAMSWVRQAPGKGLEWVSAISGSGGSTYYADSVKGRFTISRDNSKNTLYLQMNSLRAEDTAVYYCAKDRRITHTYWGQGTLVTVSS
VL (EGFR arm): DIQMTQSPSSLSASVGDRVTITCRASQSIGTNIHWYQQKPGKAPKLLIKYASESISGVPSRFSGSGYGTDFTLTISSLQPEDVATYYCQQNNNWPTTFGQGTKVEIK
VH (EGFR arm): EVQLVQSGAEVKKPGASVKVSCKASGFSLTNYGVHWMRQAPGQGLEWIGVIWRGGNTDYNTPFTSRVTITSDKSTSTAYMELSSLRSEDTAVYYCARALTYYDYEFAYWGQGTLVTVSS
notes: c-MET x EGFR SEED bispecific

Tests used:
EGFR on cells [1] = target: T1, EGFR on cells (human, UniProt P00533); test: flow cytometry, A431 cells (c-MET+ EGFR+++)
T1 construct: endogenous receptor on the cell surface; for A549 cells m5 is used; also called on NCI-H441, EBC-1, A431, MKN-45, HepG2 or T47D cells (cell line under assay)

EGFR on cells [2] = target: T1, EGFR on cells; test: flow cytometry on NCI-H441 cells (express c-MET and EGFR), FITC anti-human Fc, n=3
Experimental: NCI-H441 cells were detached with trypsin, centrifuged at 250×g for 10 min at 4° C. and resuspended in FACS buffer (1% BSA in 1×PBS). Cells were transferred to in 96 well round bottom plates at a density of 1×10⁵ cells/well on ice. Purified c-MET×EGFR bispecific antibodies (0.02-200 nM) were added in FACS buffer in triplicates for 1 h on ice. Cells were centrifuged for 1000×g for 5 min at 4° C. and washed 3 times with 100 μl FACS buffer. Cells were incubated with 500 ng/well Fluorescein (FITC)-conjugated goat anti-human Fc gamma fragment IgG specific antibody (Jackson ImmunoResearch) diluted in FACS buffer on ice for 1 h. Cells were washed again 3 times with 100 μl FACS buffer. For counter staining of non-viable cells, centrifuged cells were resuspended in 200 μl propidium iodide solution (Invitrogen) diluted in FACS buffer (1:200). […] Data were plotted as mean fluorescence intensity (raw fluorescence subtracted by background, e.g. non-stained cell control) against the logarithm of the bispecific antibody concentration and fitted to a sigmoidal dose-response curve with variable slope using GraphPad Prism 4 (GraphPad Software).

EGFR on cells [3] = target: T1, EGFR on cells; test: flow cytometry, HepG2 cells (c-MET+ EGFR+)
EGFR on cells [4] = target: T1, EGFR on cells; test: flow cytometry, MKN-45 cells (c-MET+++ EGFR++)
c-MET on cells = target: T2, c-MET on cells (human, UniProt P08581); test: flow cytometry, SK-MEL2 cells (c-MET+ EGFR-)
T2 construct: endogenous receptor on the cell surface; for A549 cells m4 is used; also called HGFR; on NCI-H441, EBC-1, A431, MKN-45, SK-MEL2 or HepG2 cells (cell line under assay)

EGFR on cells [5] = target: T1, EGFR on cells; test: flow cytometry, EBC-1 cells (c-MET+++ EGFR++)
[6] = target: T3, EGFR (soluble extracellular domain) (human, UniProt P00533); test: BLI (Octet), antibody on anti-human Fc biosensors, soluble EGFR ECD as analyte
T3 construct: soluble extracellular domain; also called Human EGFR extracellular domain, R&D Systems 1095-ER

[7] = target: T4, EGFR (epidermal growth factor receptor) on A549 cells (human, UniProt P00533 25-1210); test: flow cytometry, A549 cells (c-MET+ EGFR++)
T4 construct: whole, on cells; Endogenous receptor of A549 cells; phosphorylation read out in cell lysates

[8] = target: T5, c-MET and EGFR co-expressed on cells (human, UniProt P08581;P00533); test: flow cytometry, A431 cells (c-MET+ EGFR+++)
T5 construct: endogenous receptor on the cell surface; not a complex: two separate receptors on the same cell; used as target only for bispecific c-MET x EGFR molecules, whose cell staining cannot be split between the two arms; also called cells that carry both receptors: NCI-H441, EBC-1, A431, MKN-45, A549, HepG2 (cell line under assay)

EGFR on cells [9] = target: T1, EGFR on cells; test: flow cytometry at 300 nM on mixed EBC-1 and T47D (low EGFR, no c-MET) cells, anti-human Fc detection; T47D population
Text: (A) EBC-1 as tumor model cell line with high to moderate c-MET and EGFR expression and T47D as epithelial model cell line with low EGFR expression and no c-MET expression were mixed in a ratio of 1:30. In order to distinguish the two cell lines, EBC-1 cells were stained with the green membrane dye PKH2. […] Antibody binding was detected by FITC-labeled anti-hu Fc secondary antibody. […] (B) In vitro selectivity was defined as the ratio of mean fluorescence intensity of the EBC-1 and the T47D cell population.

[10] = target: T5, c-MET and EGFR co-expressed on cells; test: flow cytometry, HepG2 cells (c-MET+ EGFR+)
[11] = target: T5, c-MET and EGFR co-expressed on cells; test: flow cytometry, MKN-45 cells (c-MET+++ EGFR++)
[12] = target: T5, c-MET and EGFR co-expressed on cells; test: flow cytometry, EBC-1 cells (c-MET+++ EGFR++)
[13] = target: T5, c-MET and EGFR co-expressed on cells; test: flow cytometry, A549 cells (c-MET+ EGFR++)

Row | Binder | MFI at 100 nM (EGFR on cells [1]) | EC50 (read off the curve) (EGFR on cells [2]) [nM] | MFI at 100 nM (EGFR on cells [3]) | MFI at 100 nM (EGFR on cells [4]) | MFI at 100 nM (c-MET on cells) | binding result (c-MET on cells) | MFI at 100 nM (EGFR on cells [5]) | Kd [6] [nM] | koff [6] [s⁻¹] | kon [6] [M⁻¹ s⁻¹] | MFI at 100 nM [7] | MFI at 100 nM [8] | binding result (EGFR on cells [9]) | MFI at 100 nM [10] | MFI at 100 nM [11] | MFI at 100 nM [12] | MFI at 100 nM [13]
1 | B1 | 2230 | ~0.4 | 53 | 199 | 20 | no binding (tested: 100 nM) | 287 | 0.14 | 0.00049 | 3.6e+06 | 184 | – | – | – | – | – | –
2 | B2 | – | – | – | – | 341 | – | – | – | – | – | – | 847 | binds | 451 | 1220 | 2040 | 249
